Where two headings read alike, the source gives them in different places.
B1: full-length SLFN12 (natural protein, human, UniProt Q8IYM2 1-578, looked up)
chain: MNISVDLETNYAELVLDVGRVTLGENSRKKMKDCKLRKKQNESVSRAMCALLNSGGGVIKAEIENEDYSYTKDGIGLDLENSFSNILLFVPEYLDFMQNGNYFLIFVKSWSLNTSGLRITTLSSNLYKRDITSAKVMNATAALEFLKDMKKTRGRLYLRPELLAKRPCVDIQEENNMKALAGVFFDRTELDRKEKLTFTESTHVEIKNFSTEKLLQRIKEILPQYVSAFANTDGGYLFIGLNEDKEIIGFKAEMSDLDDLEREIEKSIRKMPVHHFCMEKKKINYSCKFLGVYDKGSLCGYVCALRVERFCCAVFAKEPDSWHVKDNRVMQLTRKEWIQFMVEAEPKFSSSYEEVISQINTSLPAPHSWPLLEWQRQRHHCPGLSGRITYTPENLCRKLFLQHEGLKQLICEEMDSVRKGSLIFSRSWSVDLGLQENHKVLCDALLISQDSPPVLYTFHMVQDEEFKGYSTQTALTLKQKLAKIGGYTKKVCVMTKIFYLSPEGMTSCQYDLRSQVIYPESYYFTRRKYLLKALFKALKRLKSLRDQFSFAENLYQIIGIDCFQKNDKKMFKSCRRLT
B2: catalytic domain of PDE3A (PDE3A^CAT), residues 640-1141 (domain or fragment, human, UniProt Q14432 640-1141, looked up)
chain: EDETECLREPLRKASACSTYAPETMMFLDKPILAPEPLVMDNLDSIMEQLNTWNFPIFDLVENIGRKCGRILSQVSYRLFEDMGLFEAFKIPIREFMNYFHALEIGYRDIPYHNRIHATDVLHAVWYLTTQPIPGLSTVINDHGSTSDSDSDSGFTHGHMGYVFSKTYNVTDDKYGCLSGNIPALELMALYVAAAMHDYDHPGRTNAFLVATSAPQAVLYNDRSVLENHHAAAAWNLFMSRPEYNFLINLDHVEFKHFRFLVIEAILATDLKKHFDFVAKFNGKVNDDVGIDWTNENDRLLVCQMCIKLADINGPAKCKELHLQWTDGIVNEFYEQGDEEASLGLPISPFMDRSAPQLANLQESFISHIVGPLCNSYDSAGLMPGKWVEDSDESGDTDDPEEEEEEAPAPNEEETCENNESPKKKTFKRRKIYCQITQHLLQNHKMWKKVIEEEQRLAGIENQSLDQTPQSHSSEQIQAIKEEEEEKGKPRGEEIPTQKPDQ
B3: biotinylated Avi-tagged PDE3A^CAT (domain or fragment, human, UniProt Q14432 640-1141, looked up)
chain: EDETECLREPLRKASACSTYAPETMMFLDKPILAPEPLVMDNLDSIMEQLNTWNFPIFDLVENIGRKCGRILSQVSYRLFEDMGLFEAFKIPIREFMNYFHALEIGYRDIPYHNRIHATDVLHAVWYLTTQPIPGLSTVINDHGSTSDSDSDSGFTHGHMGYVFSKTYNVTDDKYGCLSGNIPALELMALYVAAAMHDYDHPGRTNAFLVATSAPQAVLYNDRSVLENHHAAAAWNLFMSRPEYNFLINLDHVEFKHFRFLVIEAILATDLKKHFDFVAKFNGKVNDDVGIDWTNENDRLLVCQMCIKLADINGPAKCKELHLQWTDGIVNEFYEQGDEEASLGLPISPFMDRSAPQLANLQESFISHIVGPLCNSYDSAGLMPGKWVEDSDESGDTDDPEEEEEEAPAPNEEETCENNESPKKKTFKRRKIYCQITQHLLQNHKMWKKVIEEEQRLAGIENQSLDQTPQSHSSEQIQAIKEEEEEKGKPRGEEIPTQKPDQ
modifications: biotin on the Avi-tag (BirA ligase)

What was measured:
SEC-MALS [1] = target: the molecule itself; test: SEC-MALS
[2] = target: B2; test: SEC-MALS
AUC = target: the molecule itself; test: AUC
[3] = target: B3; test: BLI
SEC-MALS [4] = target: the molecule itself; test: SEC-MALS; remark: listed apart in the source
His6-MBP-SLFN12 = His6-MBP-SLFN12 (human, UniProt Q8IYM2 1-578); test: pull-down
full-length SLFN12 = target: B1; test: BLI

## B1
SEC-MALS [1]
  stoichiometry N: 2
[2]
  stoichiometry N: 1 SLFN12 per PDE3A^CAT (2:2)
AUC
  Kd: 870 nM
[3]
  KD with DNMDP: 65 nM

## B2
SEC-MALS [4]
  stoichiometry N: 2
AUC
  Kd: 40 nM
His6-MBP-SLFN12
  binding result: binds

## B3
full-length SLFN12
  Kd: 320 nM

— PMC8285493 (Nature Communications, 2021)
